Entries after “also recorded” stand apart in the source; their conditions may differ.
Tests used:
iPSC clones = assay: Apoptotic efficacy in individual construct clones treated with 4-OHT, Endoxifen or combinations; assay type: cell-based, human; settings: for apoptotic (killing) efficacy: 24 hours
Method: Next, individual clones that were determined to be suitable for further assessments were evaluated for 24 hours in the presence of 4-OHT at two different concentrations.
Individual Construct 1-4 clones were also assessed for their responses to another tamoxifen metabolite, Endoxifen. Clones were evaluated for 24 hours in the presence of Endoxifen at three different concentrations.
Tamoxifen is a prodrug that is broken down into its active metabolites in vivo. To model predicted drug concentrations in a patient, the clone Construct 1 c.165 was treated with various combinations of 4-OHT and Endoxifen, wherein 1.25 nM Endoxifen was combined with a concentration of 4-OHT ranging between 0.125 nM to 1 nM (FIG. 12A). […] In the next evaluation, 0.125 nM 4-OHT was combined with either 0.625 or 1.25 nM Endoxifen (FIG. 12B).

[1] = system: PSC-derived myeloid progenitor cells; assay: TamCasp9 Safety Switch activation in PSC-derived myeloid progenitor cells, AOPI staining, Incucyte SX5; assay type: cell-based, human
Method: A hPSC line engineered with TamCasp9 Construct 1 and an unedited parental control hPSC line were differentiated into myeloid progenitor cells through the addition of various growth factors and small molecules. Differentiated cells were plated at 1×10^5 cells/cm^2 in an ultra-low attachment cell culture plate for further myeloid cell maturation. After 7 days in maturation medium, cells were collected and frozen down.
For testing of TamCasp9 Safety Switch activation, myeloid cells were plated at 1.5×10^5 cells/cm^2 in a 96-well tissue culture plate with a 1:750 dilution of ViaStain AOPI Staining Solution (Nexcelom) in X-VIVO 15 Medium with 10 ng/mL GM-CSF. The kill switch was induced with 0, 1, 10 or 100 uM of Endoxifen over 3 days and images were collected every 6 hours on the Incucyte SX5 (Sartorius).
To better model predicted drug concentrations in a patient by testing activation of the kill switch against a range of tamoxifen metabolites, the PSC clone Construct 1 c.165, engineered to incorporate an exemplary modified ERT2 peptide-suicide protein fusion polypeptide construct (Table 3), was differentiated to myeloid progenitor cells as depicted in FIG. 13A. Differentiated cells were plated at 1×10^5 cells/cm^2 in an ultra-low attachment cell culture plate for further myeloid cell maturation. After 7 days in maturation medium, cells were collected and frozen down. For testing of TamCasp9 Safety Switch activation, myeloid cells were plated at 1.0×10^5 cells/cm^2 in a 96-well tissue culture plate with a 1:750 dilution of ViaStain AOPI Staining Solution (Nexcelom) in X-VIVO 15 Medium with 10 ng/mL GM-CSF. The kill switch was induced with varying concentrations of combination 4-OHT and Endoxifen treatment over 4 days and images were collected every 4 hours on the Incucyte SX5, with 12 hour timepoints plotted on a graph (Sartorius) (FIG. 14). Either 2.5 nM or 5 nM of Endoxifen was tested in combination with either 0.5 nM, 1 nM or 10 nM of 4-OHT. 100 nM Endoxifen was added as positive killing control as per FIG. 13E.

iPSCs = assay: Apoptosis induction in transfected iPSCs monitored by microscopy and Incucyte tracking; assay type: cell-based, human; settings: construct-transfected iPSCs, 1 nM 4-OHT, up to two days
human iPSCs [2] = assay: Junction GAPT2A ddPCR of knock-in iPSC pools for integration at GAPDH locus, with or without 4-OHT; assay type: cell-based; settings: pooled iPSCs treated with 1 nM 4-OHT
Method: Modified ERT2 peptide-suicide protein fusion polypeptide encoding constructs were delivered to human iPSCs via Nucleofection with a GAPDH targeting ribonucleoprotein (RNP) complex comprising of Cpf1 endonuclease and a single guide RNA (sgRNA) targeting the coding sequence of the GAPDH gene. The sgRNA comprised a sequence 5′ […] 3′ (SEQ ID NO: 60). Briefly, iPSCs were cultured in Essential 8 (E8) medium and maintained at 37° C. at 5% CO2 level between passages. Passages were done at 75 to 80% confluency. On the day of Nucleofection, iPSCs were thawed and immediately Nucleofected in Lonza P3 Primary Cell Nucleofection buffer. 7.5 μg of each plasmid construct (BRC00058-61) were Nucleofected into iPSCs using GAPDH Cpf1 RNP with LONZA 4D Nucleofector. The Nucleofected cells were then plated at 50,000 cells/cm^2 per well of a 6-well plate and grown in E8 medium (plus Rock inhibitor Y-27632 from Tocris) for 72 to 96 hours. Knock-in pools were screened for integration 7d post-Nucleofection using ddPCR, as well as conventional PCR.
Whereas the integration dropped from 5.7% to 1% in Construct 1-transfected cell pools and from 4.5% to 0.7% in Construct 2-transfected cell pools when treated with 1 nM 4-OHT (FIG. 4A).

human iPSCs [3] = assay: Flow cytometric analysis of cleaved Caspase-3 in transfected iPSCs; assay type: cell-based; settings: 1 nM 4-OHT, two-day treatment
Excerpt: In another set of assessments, Construct 1 or Construct 2 transfected iPSCs were harvested for flow cytometric analysis. The primary antibody used was an anti-human/mouse cleaved Caspase-3. The primary antibody detects human and mouse Caspase 3 cleaved at Asp175.

Row | Molecule | apoptosis / cell killing (iPSCs) | fusion polypeptide sequence integration (junction GAPT2A ddPCR) (human iPSCs [2]) | apoptosis (cleaved Caspase-3 flow cytometry) (human iPSCs [3]) | other results
1 | CC/C(=C(\c1ccc(O)cc1)c1ccc(OCCNC)cc1)c1ccccc1 [Endoxifen, endoxifen, reference compound] |  |  |  | lowest effective concentration in 4-OHT-Endoxifen combination (iPSC clones; clone Construct 1 c.165): 1.25 nM; apoptosis in unedited cells ([1]; unedited differentiated myeloid progenitors, combination 4-OHT and Endoxifen treatment): did not induce apoptosis
2 | Construct 1: GAPDH-targeting construct encoding modified ERT2 peptide-suicide protein fusion polypeptide ERT2*mut81-Casp9, SEQ ID NO: 44 (protein) AGDMRAANLWPSPLMIKRSKKNSLALSLTADQMVSALLDAEPPILYSEYDPTRPFSEASMMGLLTNLADRELVHMINWAKRVPGFVDLTLHDQVHLLECAWMEILMIGVVWRSMEHPVKLLFAPNLLLDRDQGKCVEGLVEIFDMLLATSSRFRMMNLQGEEFVCLKSIILLNSGVYTFLPSTLKSLEEKDHIHRVLDKITDTLIHLMAKAGLTLQQQHQRLAQLLLILSHIRHMSNKGMELLYSMKCKNVVPLYDLLLEAADAHRLHAPTSRGGASVEETDQSHLATAGSTSSHSLQKYYITGEAEGFPATGGGGSGGGGSGGGGSVDGFMDVGALESLRGNADLAYILSMEPCGHCLIINNVNFCRESGLRTRTGSNIDCEKLRRRFSSLHFMVEVKGDLTAKKMVLALLELARQDHGALDCCVVVILSHGCQASHLQFPGAVYGTDGCPVSVEKIVNIFNGTSCPSLGGKPKLFFIQACGGEQKDHGFEVASTSPEDESPGSNPEPDATPFQEGLRTFDQLDAISSLPTPSDIFVSYSTFPGFVSWRDPKSGSWYVETLDDIFEQWAHSEDLQSLLLRVANAVSVKGIYKQMPGCFNFLRKKLFFKTS | cells were completely killed by day 2 | 1% | able to induce apoptosis in the majority of the cells | apoptotic (killing) efficacy (iPSC clones; 1 nM 4-OHT): displayed higher efficacy than Construct 2-4 clones; also recorded: highest apoptotic efficacy; apoptotic (killing) efficacy (iPSC clones; 1 nM Endoxifen, compared to hygromycin control): approached the level of apoptosis by hygromycin control at 24 hours; apoptosis (kill switch activity) ([1]; 0, 1, 10 or 100 uM of Endoxifen over 3 days): induced apoptosis following endoxifen treatment
3 | Construct 2: GAPDH-targeting construct encoding fusion polypeptide ERT2*mut88-Casp9, SEQ ID NO: 46 (protein) AGDMRAANLWPSPLMIKRSKKNSLALSLTADQMVSALLDAEPPILYSEYDPTRPFSEASMMGLLTNLADRELVHMINWAKRVPGFVDLTLHDQVHLLECAWLEILMIGVVWRSMEHPVKLLFAPNLLLDRDEGKCVEGMVEIFDMLLATSSRFRMMNLQGEEFVCLKSIILLNSGVYTFLPSTLKSLEEKDHIHRVLDKITDTLIHLMAKAGLTLQQQHQRLAQLLLILSHIRHMSNKGMEFLYSMKCKNVVPLYDLLLEAADAHRLHAPTSRGGASVEETDQSHLATAGSTSSHSLQKYYITGEAEGFPATGGGGSGGGGSGGGGSVDGFMDVGALESLRGNADLAYILSMEPCGHCLIINNVNFCRESGLRTRTGSNIDCEKLRRRFSSLHFMVEVKGDLTAKKMVLALLELARQDHGALDCCVVVILSHGCQASHLQFPGAVYGTDGCPVSVEKIVNIFNGTSCPSLGGKPKLFFIQACGGEQKDHGFEVASTSPEDESPGSNPEPDATPFQEGLRTFDQLDAISSLPTPSDIFVSYSTFPGFVSWRDPKSGSWYVETLDDIFEQWAHSEDLQSLLLRVANAVSVKGIYKQMPGCFNFLRKKLFFKTS | did not induce apoptosis | 0.7% | failed to do so | apoptotic (killing) efficacy (iPSC clones; 5 nM 4-OHT): able to induce apoptosis; apoptotic (killing) efficacy (iPSC clones; 10 nM Endoxifen, compared to hygromycin kill control): able to induce apoptosis
4 | Construct 3: GAPDH-targeting construct encoding fusion polypeptide ERT2*mut63-Casp9, SEQ ID NO: 48 (protein) AGDMRAANLWPSPLMIKRSKKNSLALSLTADQMVSALLDAEPPILYSEYDPTRPFSEASMMGLLTNLADREIVHMINWAKRVPGFVDLTLHDQVHLLECAWLEILMIGVVWRSMEHPVKLLFAPNLLLDRDEGKCVEGLVEIFDMLLATSSRFRMMNLQGEEFVCLKSIILLNSGVYTFLSSTLKSLEEKDHIHRVLDKITDTLIHLMAKAGLTLQQQHQRLAQLLLILSHIRHASNKGMEFLYSMKCKNVVPLYDLLLEAADAHRLHAPTSRGGASVEETDQSHLATAGSTSSHSLQKYYITGEAEGFPATGGGGSGGGGSGGGGSVDGFMDVGALESLRGNADLAYILSMEPCGHCLIINNVNFCRESGLRTRTGSNIDCEKLRRRFSSLHFMVEVKGDLTAKKMVLALLELARQDHGALDCCVVVILSHGCQASHLQFPGAVYGTDGCPVSVEKIVNIFNGTSCPSLGGKPKLFFIQACGGEQKDHGFEVASTSPEDESPGSNPEPDATPFQEGLRTFDQLDAISSLPTPSDIFVSYSTFPGFVSWRDPKSGSWYVETLDDIFEQWAHSEDLQSLLLRVANAVSVKGIYKQMPGCFNFLRKKLFFKTS | cells were completely killed by day 2 | 1.4% |  | 
5 | Construct 4: GAPDH-targeting construct encoding fusion polypeptide ERT2*mut41-Casp9, SEQ ID NO: 50 (protein) AGDMRAANLWPSPLMIKRSKKNSLALSLTADQMVSALLDAEPPILYSEYDPTRPFSEASMMGLLTNLADREIVHMINWAKRVPGFVDLTLHDQVHLLECAWLEILMIGVVWRSMEHPVKLLFAPNLVLDRDEGKCVEGMVEIFDMLLATSSRFRMMNLQGEEFVCLKSIILLNSGVYTFLSSTLKSLEEKDHIHRVLDKITDTLIHLMAKAGLTLQQQHQRLAQLLLILSHIRHMSNKGMELLYSMKCKNVVPLYDLLLEAADAHRLHAPTSRGGASVEETDQSHLATAGSTSSHSLQKYYITGEAEGFPATGGGGSGGGGSGGGGSVDGFMDVGALESLRGNADLAYILSMEPCGHCLIINNVNFCRESGLRTRTGSNIDCEKLRRRFSSLHFMVEVKGDLTAKKMVLALLELARQDHGALDCCVVVILSHGCQASHLQFPGAVYGTDGCPVSVEKIVNIFNGTSCPSLGGKPKLFFIQACGGEQKDHGFEVASTSPEDESPGSNPEPDATPFQEGLRTFDQLDAISSLPTPSDIFVSYSTFPGFVSWRDPKSGSWYVETLDDIFEQWAHSEDLQSLLLRVANAVSVKGIYKQMPGCFNFLRKKLFFKTS | cells were completely killed by day 2 | 2.3% |  | 

Reference: patent publication US20260083859A1, “SUSTAINED TRANSGENE EXPRESSION OF MODIFIED ERT2 PEPTIDE-SUICIDE PROTEIN FUSION POLYPEPTIDES” (Senti Biosciences, Inc., priority 2023, published 2026)
